{"source": "patent US20250026813A1", "about": "(published 2025)", "binders": {"B1": {"name": "IMPI-054 (antibody, V domains shown)", "VH": "EVQLVESGGGLIQPGGSLRLSCAASGLTVSSNYMSWVRQAPGKGLEWVSIIYSGGSTYYADSVKGRFTISRDNSKNTLYLQMNSLRAEDTAVYYCARLGGYYYYGMDVWGQGTTVTVSS", "VL": "DIQMTQSPSSLSASVGERVTITCQASQDIRNYLNWYQKKPGKAPKLLIYDSSNLETGVPSRFSGSGSGTDFTFTISSLQPEDIATYYCQQYDNLPITFGQGTRLEIK"}, "B2": {"name": "IMPI-042 (antibody, V domains shown)", "VH": "B1 VH", "VL": "B1 VL with S65G"}, "B3": {"name": "IMPI-060 (antibody, V domains shown)", "VH": "EVQLVESGGGLIQPGGSLRLSCAASGVTVSSNYMSWVRQAPGKGLEWVSVIYSGGSTFYADSVKGRFTISRDNSKNTLYLQMNSLRAEDTAVYYCARDLSYYGMDVWGQGTTVTVSS", "VL": "DIQLTQSPSFLSASVGDRVTITCWASQGISSYLAWYQQKPGKAPKLLIYAASTLQSGVPSKFSGSGSGTEFTLTISSLQPEDFATYYCQQLNSYPSSFGQGTKLEIK"}, "B4": {"name": "IMPI-047 (antibody, V domains shown)", "VH": "B3 VH with V27F, S35N, F58Y, A87T, S100V, Y101A", "VL": "B3 VL with L46V, K61R, Q90L, Y94N, S96L, S97T, Q100G, L104V"}, "B5": {"name": "IMPI-017 (antibody, V domains shown)", "VH": "B3 VH with S25A, V27L, S35N, A40V, F58Y, S100G, Y101T, Y102L", "VL": "B3 VL with S31T, K61R, P95L, S96P, S97T, L104V"}, "B6": {"name": "IMPI-055 (antibody, V domains shown)", "VH": "QVQLVQSGAEVKKPGASVKVSCKASGYTFTSYDINWVRQATGQGLEWMGWMNPNSGNTGYAQKFQGRVTMTRDTSINTAYMELSSLRSEDTAVYFCARGGRYCSDVTCYSGEPFDYWGQGTLVTVSS", "VL": "EIMLTQSPDFQSVTPKEKVTITCRASQSIGSSLHWYQQKPDQSPKLLIKFASQSISGVPSRFSGSGSGTDFTLTINSLEAEDAAAYYCHQSSSLPHTFGPGTKVEIK"}, "B7": {"name": "IMPI-063 (antibody, V domains shown)", "VH": "EVQLVESGGGVVRPGGSLRLSCAASGFTFDDYGMSWVRQAPGKGLEWVSGIYWNGGSTGYADSVKGRFTISRDNAKNSLYLQMNSLRAEDMALYYCARGVGATDYWGQGTLVTVSS", "VL": "EIVLTQSPGTLSLSSGERATLACRASESVRGSFLAWYQQKPGQAPRLLIYGASRRATGIPDRFSGSGSGTDFTLTISRLEPEDFAVYYCQQYGNSPMCSFGQGTKLEIK"}, "B8": {"name": "IMPI-059 (antibody, V domains shown)", "VH": "EVQLVESGGGLIQPGGSLRLSCAASGFTVSSIYMSWVRQAPGKGLEWVSIIYSRGSTDYADSVKGRFTISRDISKNTLYLQMNSLRAEDTAVYYCARDGTMVRGVHAFDIWGQGTMVTVSS", "VL": "DIQMTQSPPSLSASIGDRVTITCQASQDISNYLNWYQQKPGKAPKLLIYDASNLETGVPSRFSGSGSGTDFTLTISNLQPEDIVTYYCQQYDNLPSSFGQGTKLEIK"}, "B9": {"name": "IMPI-006 (antibody, V domains shown)", "VH": "QLQLQESGPGLVKPSETLSLTCTVSGGSISNSNYYWGWIRQPPGKGLEWIGSIYYSGRTYYNPSLKSRVTISVDTSKNQFSLKLSSVTAADTAVYYCARMGLLWFGEFYGMDVWGQGTTVTVSS", "VL": "DIQMTQSPSSLSASVGDRVTITCRASQGISSWLAWYQQKPEKAPKSLIYDASSLQRGVPSRFSGSGSGTDFTLTISSLQPEDFASYYCQQYNSYPLTFGGGTRVEIK"}}, "note": "Where a chain is given by its changes, count along the chain named."}
{"target": "T1, S1 subunit of the SARS-CoV-2 spike protein (Sino Biological 40591-V08H), His tag (SARS-CoV-2, UniProt P0DTC2 16-685)", "T1 construct": "domain: S1 subunit", "units": {"HTRF deltaF": "deltaF"}}
{"binder": "B1", "HTRF deltaF": 772}
{"binder": "B2", "HTRF deltaF": 617}
{"binder": "B3", "HTRF deltaF": 378}
{"binder": "B4", "HTRF deltaF": 2250}
{"binder": "B5", "HTRF deltaF": 752}
{"binder": "B6", "HTRF deltaF": 1030}
{"binder": "B7", "HTRF deltaF": -0.4}
{"binder": "B8", "HTRF deltaF": 569}
{"binder": "B9", "HTRF deltaF": 885}
{"target": "full-length stabilised spike trimer protein of SARS-CoV-2 virus (in-house, soluble ECD with trimeris (SARS-CoV-2, UniProt P0DTC2 14-1208; P10104 458-484)", "units": {"HTRF deltaF": "deltaF"}}
{"binder": "B1", "HTRF deltaF": 563}
{"binder": "B2", "HTRF deltaF": 926}
{"binder": "B3", "HTRF deltaF": 488}
{"binder": "B4", "HTRF deltaF": 1410}
{"binder": "B5", "HTRF deltaF": 550}
{"binder": "B6", "HTRF deltaF": 551}
{"binder": "B7", "HTRF deltaF": 968}
{"binder": "B8", "HTRF deltaF": 403}
{"binder": "B9", "HTRF deltaF": 1060}
